Paper PMC8633789, “Transmembrane topology and oligomeric nature of an astrocytic membrane protein, MLC1” (Open Biology, 2021)

How the values were obtained:
[1] = biological target: codon-optimized chicken MLC1 with 6× His-tag (chicken); assay: cross-linking; glutaraldehyde (400-fold molar excess) on protein-detergent micelles (0.5-0.9 µg protein/µl), 1, 10 or 30 min at 23°C, SDS-PAGE; cross-linking largely inhibited with 2% SDS
CLC-ck2 = assay: SEC-MALS; SEC-MALS-RI, Superdex-200 Increase 10/300 GL, 1 mg/ml in 200 µl, 150 mM NaCl, 20 mM HEPES pH 7.5, 2 mM DDM
[2] = biological target: the molecule itself; assay: as above
[3] = biological target: the molecule itself; assay: cross-linking; glutaraldehyde (400-fold molar excess) on protein-detergent micelles (0.5-0.9 µg protein/µl), 1, 10 or 30 min at 23°C, SDS-PAGE; cross-linking largely inhibited with 2% SDS
[4] = biological target: the molecule itself; assay: single-molecule photobleaching (TIRFM); proteoliposomes (POPE:POPG 3:1, 0.1 mol% biotinyl CAP-PE, 0.4 µg protein/mg lipid) immobilised on a coated coverslip; distribution of GFP bleaching steps compared with binomial models, p = 0.8

“codon-optimized chicken MLC1 with 6× His-tag (natural protein)” gave a stoichiometry N [1] of 3.

CLC-ck2 (natural protein) was tested, and the stoichiometry N (CLC-ck2) was 2.

B1: CLC-ec1 (natural protein, UniProt P37019 1-473, looked up)
chain: MKTDTPSLETPQAARLRRRQLIRQLLERDKTPLAILFMAAVVGTLVGLAAVAFDKGVAWLQNQRMGALVHTADNYPLLLTVAFLCSAVLAMFGYFLVRKYAPEAGGSGIPEIEGALEDQRPVRWWRVLPVKFFGGLGTLGGGMVLGREGPTVQIGGNIGRMVLDIFRLKGDEARHTLLATGAAAGLAAAFNAPLAGILFIIEEMRPQFRYTLISIKAVFIGVIMSTIMYRIFNHEVALIDVGKLSDAPLNTLWLYLILGIIFGIFGPIFNKWVLGMQDLLHRVHGGNITKWVLMGGAIGGLCGLLGFVAPATSGGGFNLIPIATAGNFSMGMLVFIFVARVITTLLCFSSGAPGGIFAPMLALGTVLGTAFGMVAVELFPQYHLEAGTFAIAGMGALLAASIRAPLTGIILVLEMTDNYQLILPMIITGLGATLLAQFTGGKPLYSAILARTLAKQEAEQLARSKAASASENT
notes: CLC-ec1, control membrane protein, approximately 100 kDa as a dimer; also called CLC-ec1 dimer
For B1, the “stoichiometry N” value [2] was 2.

B2: 3× Flag-tagged human MLC1 (natural protein, UniProt Q15049-1 1-377, looked up)
chain: MTQEPFREELAYDRMPTLERGRQDPASYAPDAKPSDLQLSKRLPPCFSHKTWVFSVLMGSCLLVTSGFSLYLGNVFPAEMDYLRCAAGSCIPSAIVSFTVSRRNANVIPNFQILFVSTFAVTTTCLIWFGCKLVLNPSAININFNLILLLLLELLMAATVIIAARSSEEDCKKKKGSMSDSANILDEVPFPARVLKSYSVVEVIAGISAVLGGIIALNVDDSVSGPHLSVTFFWILVACFPSAIASHVAAECPSKCLVEVLIAISSLTSPLLFTASGYLSFSIMRIVEMFKDYPPAIKPSYDVLLLLLLLVLLLQAGLNTGTAIQCVRFKVSARLQGASWDTQNGPQERLAGEVARSPLKEFDKEKAWRAVVVQMAQ
notes: human MLC1 (megalencephalic leukoencephalopathy with subcortical cysts protein 1), cDNA NM_015166.3 from GenScript; The predicted mass of the tagged monomer (approx. 44 kDa) fits the whole protein; also called 3× Flag-hMLC1; hMLC1; not shown: 3× Flag, N-terminal, kept
For B2, the “stoichiometry N” value [3] was 3.

B3: 3× Flag-tagged hMLC1-GFP (natural protein, human, UniProt Q15049-1 1-377, looked up)
chain: B2 chain
notes: human MLC1, cDNA NM_015166.3; probably as for 3× Flag-hMLC1 (HEK293S GnTI-); also called 3× F-hMLC1-G; 3× F-hMLC1-GFP; source: reconstituted into POPE:POPG proteoliposomes; not shown: 3× Flag, N-terminal, kept; GFP, C-terminal, kept
In the case of B3, the “stoichiometry N” value [4] is reported as 3.
